Drawing on US20210340173A1, this text covers Ca2+ flux signaling and CCR5 internalization (bystander BRET) for 2 substances.

For assay [1], the target named is CCR5 on HEK-CCR5 cells (UniProt P51681). The assay is described as follows: cell-based or functional assay.
Assay [2] has as its target CCR5-RLuc8 on CHO-CCR5-RLuc8/YFP-CAAX cells (UniProt P51681). The assay can be described thus: cell-based or functional assay.

On to “5P12-RANTES reference standard (from UniProt P13501 34-91) (ligand)”, for which the Ca2+ flux signaling at 300 nM on HEK-CCR5 cells (bottom of the scale) in assay [1] is 0%. In assay [2], this substance came in with a CCR5 internalization (bystander BRET) at 300 nM (bottom of the scale) of 0%.
In assay [1], PSC-RANTES reference standard (ligand) returned a Ca2+ flux signaling at 300 nM on HEK-CCR5 cells (top of the scale) of 100%. The substance further had a CCR5 internalization (bystander BRET) at 300 nM (top of the scale) in assay [2] of 100%.
